# Assay: soluble on expression in E. coli; label from the status in PepcDB or PDB records
row,Sequence,soluble on expression in E. coli
1,MGSDKIHHHHHHMVNNVDVYYEGWGERWQWGRLASSTALTGRPLIMFEYSEEAIRRGLELSSLRLPLNGPRLSRGFPSYQLGLPGPVYDALPDGWGMLLMDRLFRLRGLNTARIGPLERLTYIGSNAMGAMSFEPSQPEASAVSEDIPLAQLSAEVQEVLDGEGGEFLQRLLQMGGSPQGARPKALLYCDPDTKTLTTSAASGLDAWLFKFPAKQEHPEVCAIEAVYAQCLRECHIHTPDTEYIELPNGQAAFASRRFDRQNGLRIPMQSLAAFTEANYQSPGSLDYANFLRATQICTNDVREKVLAFERVVFNVIFNNRDDHTKNFAYIMSSSGQWKLAPAYDVTYCEGPGGYHQMDVMGEALEISRELIHRLGVQEADLTSSQVDIIIEQYGEVAASFAKRAAGMFPGCITQDTLRTIQDRINDNIRCLQKR,not soluble
2,SLSQIKVLIVDDARFIRDHVTRIVKEHFPEYQIDAAEDGDDGQKAMSKVDYDLILCDWEMPGKSGLELLTWARSQPHYADIPFVMVTEG,soluble
3,GPGSMNFTQQLWSVKEWGRVMATRSEYVQIVHDATNDEKWGPTGPQMDAVCNAYPRGGPEILNELRTRLNNRDKSWRPCYKSLLVIDYLARNVDDRYLPEISALVPIIRTISTSFYYTNPKGVDHGVSVRERAKKVADLLSDGLQLREERMVAAQIKAKLSHNASDGGGPNSDAPYSGAGSYGGSRDCDRYRSYVKGSRQAYDSYRSSPPPSAVLSRPRTKEEQERCDMEMALRLQRDEERRSGVSAEQLEEMYAT,soluble
4,MSKQPMTPFEAIGGEQCIAILVDTFYSYVSKHPDLSPIFPEDLTETARKQKQFLTQYLGGPNLYTEEHGHPMLRARHLPFEITPKRAEAWLSCMEQAMDDTGVHGHIREFVFERLALTAQHMVNTPNETGEV,not soluble
5,MSLKQLFLIIGAPGSGKTTDAELIAKNNSETIAHFSTGDLLRAESAKKTERGLLIEKFTSQGELVPLEIVVETILSAIKSSGKGIILIDGYPRSVEQMQALDKELNAQNEVILKSVIEVEVSENTAKERVLGRSRGADDNEKVFHNRMRVFLDPLGEIQNFYKNKKVYKAIDGERSIEEIVGEMQEYILSFGNEGHHHHHH,soluble
6,MGSDKIHHHHHHMTPIRLIIVGLGARALTWIKVARANPDVEIVALCDPDPSARSAAARQFPKLPIGKDITDIIGTAADAVLLATPPRGREAQIEACCTHGLAVLAEKPLSDSVVTAARFVEMAEQAGVPLIVGLNFRYLAVTQEKRRLLADGAIGTPEFGRFIYERWRDGTQDWLNSYPLTMDHPMLWEQSIHHFDLMRYVHGVEPEYVQAHTANPSWTMYEGDTNVSALIGFKGGFHITYQGTWQSGHEPMNFNWRTDGSEGIVVQRAMFGDLAWAKRMEPELTPVDLPAHEAWITDAAALLDRFVAILRGATPECTGRDHLQSLFMLEACILASARRATVTIDEVRALTTPKETS,not soluble
7,MGSDKIHHHHHHMIGALYVVGPAGTGKSTFSGSLNEWLKRMEFDSAIINLDPGADYLPYEPDFDIREYISLDSIMSDYNLGPNGSQIVAADMIVSYTDKITEFLEDLDDYYVVVDTPGQIELFTFRTSSTEIVEKVSGQRSMMAYIADAPLATYPSGFIAQKMLYASVFSRFFRPMMFVLNKIDLVSDEDIQEVKKWESSPDLLNDAFMEEKGQMEKDYFVGILQAFKESNIMTKIYPVSSRDSFGFEDIYSQMALYFTGGEDNDTYREEG,not soluble
8,MNFTEMTSMEPIVTESRTPIPPVTDADRKAAFGNLQGHAIHDSAINYLVLLDQLEWQRSDNTNNFSWSVNSWIGGDTDRIWLKSEGERSNGETEAAEAQLLWGHAVGPWWDLVAGVRQDFRPASARTWAAVGFQGLALYNFESEITGFVSNGGKAALRLGGEYDVLLTNRLILQPSYEVNFYSQDDESRGRGRGLTDTELGLRLRYEIRREFAPYIGVSWNQLYGKTSDMAKREGEKDHQVVFLAGARIWFLEHHHHHH,not soluble
9,MTAINFNSIYTTYYRRAFLFTLSYVHNDLVAEDIVSEAIIYLWELSKKQEIPSIEAVLITYIRSKSLNYLKHLQVQENVYQNLTDKGQRELEIRISTLEACDPKEVMSEELRSKVKTLLAGMPEKTRIAFISDRLDGKSHKEIAEELGISVKGVEYHISKAVKLLRDNLKEYAPFLIFFI,not soluble
10,MFEKQEVEQKKELKILEIIKEAIELGASDIHLTAGAPPAVRIDGYIKFLKDFPRLTPEDTQKLAYSVMSEKHRQKLEENGQVDFSFGVRGVGRFRANVFYQRGSVAAALRSLPAEIPEFKKLGLPDKVLELCHRKMGLILVTGPTGSGKSTTIASMIDYINQTKSYHIITIEDPIEYVFKHKKSIVNQREVGEDTKSFADALRAALREDPDVIFVGEMRDLETVETALRAAETGHLVFGTLHTNTAIDTIHRIVDIFPLNQQEQVRIVLSFILQGIISQRLLPKIGGGRVLAYELLIPNTAIRNLIRENKLQQVYSLMQSGQAETGMQTMNQTLYKLYKQGLITLEDAMEASPDPKELERMIRGGRHHHHHH,soluble
11,MSNFISPVYEIKSIPIEKISPNDYNPNSVAPPEMKLLYDSIKSDGYTMPIVCYYDKEEDRYSIVDGFHRYRIMLDYSDIYERESGRLPVSVIDKSLDYRMASTIRHNRARGSHDVDLMSQIVKDLHECGRSDNWIAKHLGMDKDEILRLKQITGLASLFKDHEFNQSWEPEELLNE,soluble
12,MEFFFFIDVYADRELVDYYIVTFKLDDLSSVELTGSQGKYYIRGIRDWEKFKEEAYDITLYELGDEVDRFKDIETALREAYRIAIGEAVRRGAKNIVPAIGFGNPPPEVVERVYPEELKFEKFPEDLDAFLDRIVKEVSLETTERSKDDDEIPF,soluble
13,MAHHHHHHMEDTINVFGRGTPAGEAIYRCYVAPSKPSTLDPQLAALLARRRQEREAAEAAQAHPKPIPKSKAPVHRPRVGMGKRPTEEEYARWRLQHIPHRRSKAAIEAEEEAHRWVPPPVSERFARPAITDAEKDRLADVMAYGAELPKPKEFTGVQRARFHRLEPRAELEDRFTKLRQTAQEVQSELAQLRQSAPGAGASLPSGGRVVESVSDPQARLSQRRSCGGGGDPATASPCPLASAASPGAAAARDVLSIGGTRVGRQGDSKMSTIERCRQERELQSHLGTVIAEMEAVDRELNRLPISS,soluble
14,MSERVSEEPGLDKGDRAEECELDDPELKAIRMRVREMEEEAERLKGLSGQDKSIGVSTRPCMQTTHSKMTAGAYTEGPPQPLSAEEKKEIDKRSVYVGNVDYGSTAQDLEAHFSSCGSINRITILCDKFSGHPKGYAYIEFAERNSVDAAVAMDETVFRGRTIKVLPKRTNMPGISSTDRGGFRGRPRGNRGNYQRGQRPRGRPFRGRGRPGPLNNPY,soluble
15,MIKNLITQQEGKTLEFKRDLSSPKSLLKSIVAFANTAGGHLIIGVNDERQIIGVEHPLDEEERLCNLIADSISPRLIPSIELVTLNNKTLLVIEVFVSNTGPHWINSEGSTQGIYVRLGSTNRQADQELITELHRRSEGVNFDEMPMPQLSVDDVDITKAQELFSDIKSLNEKNLLTLKLITSHQGKLVPTKGAILLFGKERNTYFPDAWVQCGRFIGKDKSRIFDHVDIYDYLPDAVESIMMFLKKHALRGADFSAVQRKDIWSIPLVMLREAVINALVHTDYSQRGAPIRISFFDDRIEIENPGILLPGLTIEDMRQGISKIRNHVIARVFRELNLIEQWGSGVSRIYSEAIEQKLQEPEIIEIGMRIRFIIYLAQGIPIDSTFDKRDKQLESRLESRLESRLESKLAARVIQVLQNGEAGKIQIARSLGHQTVSGELHKQIKQLLKLEIIEMTIPDKPNSRLQKYRLTNKGIDLINIIQRELAAALEHHHHHH,not soluble
16,MQNLRRAVFAGLVAGTLSEGAAATAGDGGFVEDSELQFLARTYYFNRDYRDSPNNAGRNRFKPRSERNGYREEATQGLRLQFASGYTPGSLGFGLDAHAMLGLQLDSGGGRTGTGNLPVGADGHPDHRYGKVGGALRLRHGETRLKYGQTTTSAPVFAASSNRTLAGMAYGLLLEDRSFDGLLLEGGRFTAASGPGESKVRGDISTVYGRLGAYPVRLDAVGFLGGQWQATERLQLSLYASRFDDIWQQAYFGASHRQPLGGERALRVDLDAYRTRDSGQSRFGRIDTLTSSLALGYEHGPQRITLAYQRVHGEQPFDYMAFGDGRSSASMVLANSVGYSDFNGPGERSWQLRYDLDLGALGLPGLSLHALHARGRAGASASSAAESIYAGLYGRDGRHRENDLGFAYRVKAGPLAGLALRASQAWHRGNASYLDGDIDETRLVVDYSRSIW,not soluble
